The target in this assay is Shroom2 ASD2 domain (UniProt Q13796). Put plainly: pull-down of Ala mutants. As to conditions: reference: Scrib-C wild type; sites S1508.

The values that follow come from PMC4477863.

Sequence of UniProt Q13796 (Q13796 whole entry, looked up, the tested form may be a part): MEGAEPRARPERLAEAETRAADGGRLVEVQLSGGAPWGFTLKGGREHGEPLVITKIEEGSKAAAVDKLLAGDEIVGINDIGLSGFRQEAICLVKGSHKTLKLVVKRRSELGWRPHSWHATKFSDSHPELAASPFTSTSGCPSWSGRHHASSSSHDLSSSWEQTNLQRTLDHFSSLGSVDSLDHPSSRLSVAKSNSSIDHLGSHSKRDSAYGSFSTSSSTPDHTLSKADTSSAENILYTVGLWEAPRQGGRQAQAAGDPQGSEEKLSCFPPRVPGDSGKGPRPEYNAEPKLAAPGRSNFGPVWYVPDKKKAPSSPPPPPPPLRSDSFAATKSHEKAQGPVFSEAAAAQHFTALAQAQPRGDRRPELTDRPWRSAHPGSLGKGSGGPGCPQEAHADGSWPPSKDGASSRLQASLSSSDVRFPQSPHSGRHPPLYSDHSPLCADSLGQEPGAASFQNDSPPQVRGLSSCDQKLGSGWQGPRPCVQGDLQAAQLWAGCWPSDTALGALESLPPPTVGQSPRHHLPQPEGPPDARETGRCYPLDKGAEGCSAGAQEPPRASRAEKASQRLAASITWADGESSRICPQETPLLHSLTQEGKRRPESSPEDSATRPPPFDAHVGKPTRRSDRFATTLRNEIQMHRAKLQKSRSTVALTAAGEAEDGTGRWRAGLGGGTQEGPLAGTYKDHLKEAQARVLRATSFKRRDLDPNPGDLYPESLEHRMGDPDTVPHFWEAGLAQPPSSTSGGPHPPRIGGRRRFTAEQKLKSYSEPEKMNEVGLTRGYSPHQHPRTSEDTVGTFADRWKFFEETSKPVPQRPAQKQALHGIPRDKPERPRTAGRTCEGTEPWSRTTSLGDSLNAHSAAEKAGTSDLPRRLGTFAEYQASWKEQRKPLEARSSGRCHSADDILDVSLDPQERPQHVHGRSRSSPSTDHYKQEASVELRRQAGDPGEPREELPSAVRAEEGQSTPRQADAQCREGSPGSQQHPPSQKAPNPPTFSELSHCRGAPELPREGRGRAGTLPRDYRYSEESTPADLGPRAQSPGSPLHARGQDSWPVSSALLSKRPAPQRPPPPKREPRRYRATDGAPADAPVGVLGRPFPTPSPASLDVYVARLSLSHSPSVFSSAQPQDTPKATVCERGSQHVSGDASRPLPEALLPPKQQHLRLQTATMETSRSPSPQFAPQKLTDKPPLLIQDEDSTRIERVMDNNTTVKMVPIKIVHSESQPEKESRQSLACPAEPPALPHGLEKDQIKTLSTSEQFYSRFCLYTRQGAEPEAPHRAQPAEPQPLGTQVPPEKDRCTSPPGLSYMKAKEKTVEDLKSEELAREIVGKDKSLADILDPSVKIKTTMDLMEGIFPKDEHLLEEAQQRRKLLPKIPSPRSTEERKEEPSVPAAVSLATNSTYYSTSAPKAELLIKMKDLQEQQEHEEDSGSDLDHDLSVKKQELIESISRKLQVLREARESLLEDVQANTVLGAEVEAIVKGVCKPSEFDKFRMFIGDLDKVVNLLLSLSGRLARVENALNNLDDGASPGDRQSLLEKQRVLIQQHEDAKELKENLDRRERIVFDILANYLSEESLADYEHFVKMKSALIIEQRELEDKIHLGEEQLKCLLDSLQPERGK

For “Scrib Scrib-C, 1235-1630 (from UniProt Q14160-1) Scrib-C S1508A”, the “binding against the reference” value was “weaker”.
